What all share (type): binding, HCV genotype 1b, isolate con1
The target of assay [1] is T1, HCV ORFs (Gal4-DB fusions) (Hepatitis C virus genotype 1b, UniProt Q9WMX2).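 Further: yeast two-hybrid screens using HCV genotype 1b proteins fused to Gal4-DB as baits against prey cDNA libraries from human spleen and foetal brain, IMAP1 via transformation and IMAP2 via mating.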
T1 construct: expressed in transfected cells; host or cells: Saccharomyces cerevisiae MAV203 (IMAP1) / AH109 (IMAP2)
The conditions noted are these: human protein as prey.

The subject of assay [2] is HCV ORFs (Gal4-DB fusions). The conditions noted are these: human protein listed by gene symbol; the value names the HCV protein it interacts with.
In assay [3] the target is T2, GST-tagged viral proteins (Hepatitis C virus genotype 1b, UniProt Q9WMX2).
T2 construct: expressed in transfected cells; host or cells: HEK-293T
As to the kind of experiment: Validation by co-affinity purification (CoAP). Also on record: key: +: IMAP validation; −: not validated; NA: non assayable due to default of protein expression or to cellular protein directly interacting with GST. From the text: C. Validation of Y2H interactions by co-affinity purification assay. Nine co-AP positive assays are shown, representing: NS5A-SORBS2 (1), NS3-CALCOCO2 (2), NS5A-BIN1 (3), NS5A-MOBK1B (4), NS5A-EFEMP1 (5), NS3-PSMB9 and NS5A-PSMB9 (6), NS5A-PPPIRI3L (7), NS3-RASAL2 (8). After pull-down with GST tagged viral baits (+) or with negative control GST alone (−), cellular preys are identified with anti-Flag antibody. Anti-GST antibody identifies either GST alone or GST-tagged viral baits. Expression of cellular preys in cell lysate is controlled by anti-Flag (bottom panel). […]
A random pool of 59 IMAP Y2H interactions was chosen for CoAP assays. Cellular ORFs (interacting domains found in Y2H screens) were cloned by recombinational cloning from a pool of human cDNA library or the MGC cDNA plasmids using KOD polymerase (Toyobo) into pDONR207 (Invitrogen). After validation by sequencing, these ORFs were transferred to pCi-neo-3xFLAG gateway-converted, and HCV ORFs were transferred into pDEST27 (GST fusion in N-term). HEK-293T cells were then co-transfected (JetPei, Polyplus) by each pair of plasmid encoding interacting proteins. Controls are GST alone against 3xFLAG-tagged preys. Two days after transfection, cells were harvested and lysed (0.5% NP-40, 20 mM Tris-HCl (pH 8.0), 180 mM NaCl, 1 mM EDTA, and complete protease inhibitor cocktail). Cell lysates were cleared by centrifugation for 20 min at 13,000 rpm at 4° C. and soluble protein complexes were purified using Glutathione Sepharose 4B beads (GE Healthcare). Beads were then washed extensively four times with lysis buffer and proteins were separated on SDS-PAGE and transferred to nitrocellulose membrane. GST-tagged viral proteins and 3xFLAG-tagged cellular proteins were detected using standard immunoblotting techniques using anti-GST (Covance) and anti-FLAG M2 (Sigma) monoclonal antibodies (21).

Setting [4] is: validation of interaction with HCV protein NS3.
The mark [5] stands for this setting: interaction with HCV protein NS5A.

Where two headings read alike, the source gives them in different places.

B1: RASAL2 (protein, UniProt Q9UJF2 1-1139, looked up)
Ras GTPase-activating protein …: MQTPEVPAERSPRRRSISGTSTSEKPNSMDTANTSPFKVPGFFSKRLKGSIKRTKSQSKLDRNTSFRLPSLRSTDDRSRGLPKLKESRSHESLLSPCSTVECLDLGRGEPVSVKPLHSSILGQDFCFEVTYLSGSKCFSCNSASERDKWMENLRRTVQPNKDNCRRAENVLRLWIIEAKDLAPKKKYFCELCLDDTLFARTTSKTKADNIFWGEHFEFFSLPPLHSITVHIYKDVEKKKKKDKNNYVGLVNIPTASVTGRQFVEKWYPVSTPTPNKGKTGGPSIRIKSRFQTITILPMEQYKEFAEFVTSNYTMLCSVLEPVISVRNKEELACALVHILQSTGRAKDFLTDLVMSEVDRCGEHDVLIFRENTIATKSIEEYLKLVGQQYLHDALGEFIKALYESDENCEVDPSKCSSSELIDHQSNLKMCCELAFCKIINSYCVFPRELKEVFASWKQQCLNRGKQDISERLISASLFLRFLCPAIMSPSLFNLMQEYPDDRTSRTLTLIAKVIQNLANFAKFGNKEEYMAFMNDFLEHEWGGMKRFLLEISNPDTISNTPGFDGYIDLGRELSVLHSLLWEVVSQLDKGENSFLQATVAKLGPLPRVLADITKSLTNPTPIQQQLRRFTEHNSSPNVSGSLSSGLQKIFEDPTDSDLHKLKSPSQDNTDSYFRGKTLLLVQQASSQSMTYSEKDERESSLPNGRSVSLMDLQDTHAAQVEHASVMLDVPIRLTGSQLSITQVASIKQLRETQSTPQSAPQVRRPLHPALNQPGGLQPLSFQNPVYHLNNPIPAMPKASIDSSLENLSTASSRSQSNSEDFKLSGPSNSSMEDFTKRSTQSEDFSRRHTVPDRHIPLALPRQNSTGQAQIRKVDQGGLGARAKAPPSLPHSASLRSTGSMSVVSAALVAEPVQNGSRSRQQSSSSRESPVPKVRAIQRQQTQQVQSPVDSATMSPVERTAAWVLNNGQYEEDVEETEQNLDEAKHAEKYEQEITKLKERLRVSSRRLEEYERRLLVQEQQMQKLLLEYKARLEDSEERLRRQQEEKDSQMKSIISRLMAVEEELKKDHAEMQAVIDAKQKIIDAQEKRIVSLDSANTRLMSALTQVKERYSMQVRNGISPTNPTKLSITENGEFKNSSC
On to B1, for which, in assay [1] (HCV protein NS3 as bait), the “IMAP Y2H IMAP2 (number of IST)” value is reported as 3. For the same molecule, in assay [2], the “Interaction with viral protein” value is on record as “NS3”. Further, the CoAP result in assay [3] (setting [4]) is listed as “+”.

B2: GBP2 (protein, UniProt P32456 1-588, looked up)
Guanylate-binding protein 2: MAPEINLPGPMSLIDNTKGQLVVNPEALKILSAITQPVVVVAIVGLYRTGKSYLMNKLAGKKNGFSLGSTVKSHTKGIWMWCVPHPKKPEHTLVLLDTEGLGDIEKGDNENDSWIFALAILLSSTFVYNSMGTINQQAMDQLHYVTELTDRIKANSSPGNNSVDDSADFVSFFPAFVWTLRDFTLELEVDGEPITADDYLELSLKLRKGTDKKSKSFNDPRLCIRKFFPKRKCFVFDWPAPKKYLAHLEQLKEEELNPDFIEQVAEFCSYILSHSNVKTLSGGIPVNGPRLESLVLTYVNAISSGDLPCMENAVLALAQIENSAAVEKAIAHYEQQMGQKVQLPTETLQELLDLHRDSEREAIEVFMKNSFKDVDQMFQRKLGAQLEARRDDFCKQNSKASSDCCMALLQDIFGPLEEDVKQGTFSKPGGYRLFTQKLQELKNKYYQVPRKGIQAKEVLKKYLESKEDVADALLQTDQSLSEKEKAIEVERIKAESAEAAKKMLEEIQKKNEEMMEQKEKSYQEHVKQLTEKMERDRAQLMAEQEKTLALKLQEQERLLKEGFENESKRLQKDIWDIQMRSKSLEPIC
In the case of B2, in assay [1] (HCV protein NS3 as bait), the “IMAP Y2H IMAP2 (number of IST)” value was determined as 26. For the same molecule, the “Interaction with viral protein” value in assay [2] was “NS3”. In addition, the CoAP entry in assay [3] (setting [4]) is on record as “+”.

B3: GOLGA2 (protein, UniProt Q08379 1-1002, looked up)
Golgin subfamily A member 2: MWPQPRLPPRPAMSEETRQSKLAAAKKKLREYQQRNSPGVPTGAKKKKKIKNGSNPETTTSGGCHSPEDTPKDNAATLQPSDDTVLPGGVPSPGASLTSMAASQNHDADNVPNLMDETKTFSSTESLRQLSQQLNGLVCESATCVNGEGPASSANLKDLESRYQQLAVALDSSYVTNKQLNITIEKLKQQNQEITDQLEEEKKECHQKQGALREQLQVHIQTIGILVSEKAELQTALAHTQHAARQKEGESEDLASRLQYSRRRVGELERALSAVSTQQKKADRYNKELTKERDALRLELYKNTQSNEDLKQEKSELEEKLRVLVTEKAGMQLNLEELQKKLEMTELLLQQFSSRCEAPDANQQLQQAMEERAQLEAHLGQVMESVRQLQMERDKYAENLKGESAMWRQRMQQMSEQVHTLREEKECSMSRVQELETSLAELRNQMAEPPPPEPPAGPSEVEQQLQAEAEHLRKELEGLAGQLQAQVQDNEGLSRLNREQEERLLELERAAELWGEQAEARRQILETMQNDRTTISRALSQNRELKEQLAELQSGFVKLTNENMEITSALQSEQHVKRELGKKLGELQEKLSELKETVELKSQEAQSLQQQRDQYLGHLQQYVAAYQQLTSEKEVLHNQLLLQTQLVDQLQQQEAQGKAVAEMARQELQETQERLEAATQQNQQLRAQLSLMAHPGEGDGLDREEEEDEEEEEEEAVAVPQPMPSIPEDLESREAMVAFFNSAVASAEEEQARLRGQLKEQRVRCRRLAHLLASAQKEPEAAAPAPGTGGDSVCGETHRALQGAMEKLQSRFMELMQEKADLKERVEELEHRCIQLSGETDTIGEYIALYQSQRAVLKERHREKEEYISRLAQDKEEMKVKLLELQELVLRLVGDRNEWHGRFLAAAQNPADEPTSGAPAPQELGAANQQGDLCEVSLAGSVEPAQGEAREGSPRDNPTAQQIMQLLREMQNPRERPGLGSNPCIPFFYRADENDEVKITVI
Regarding B3, the “IMAP Y2H IMAP2 (number of IST)” value in assay [1] (HCV protein NS5A as bait) is reported as 15. For the same molecule, the “Interaction with viral protein” value in assay [2] is on record as “NS5A”. In assay [3] (setting [5]), the CoAP entry is listed as “+”.

B4: CCDC21 (protein, UniProt Q6P2H3 1-762, looked up)
Centrosomal protein of 85 kDa: MAMQEKYPTEGISHVTSPSSDVIQKGSSLGTEWQTPVISEPFRSRFSRCSSVADSGDTAIGTSCSDIAEDFCSSSGSPPFQPIKSHVTIPTAHVMPSTLGTSPAKPNSTPVGPSSSKLPLSGLAESVGMTRNGDLGAMKHSPGLSRDLMYFSGATGENGIEQSWFPAVGHERQEEARKFDIPSMESTLNQSAMMETLYSDPHHRVRFHNPRTSTSKELYRVLPEAKKAPGSGAVFERNGPHSNSSGVLPLGLQPAPGLSKPLPSQVWQPSPDTWHPREQSCELSTCRQQLELIRLQMEQMQLQNGAICHHPAAFGPSLPILEPAQWISILNSNEHLLKEKELLIDKQRKHISQLEQKVRESELQVHSALLGRPAPFGDVCLLRLQELQRENTFLRAQFAQKTEALSREKIDLEKKLSASEVEVQLIRESLKVALQKHSEEVKKQEERVKGRDKHINNLKKKCQKESEQNREKQQRIETLERYLADLPTLEDHQKQSQQLKDSELKSTELQEKVTELESLLEETQAICREKEIQLESLRQREAEFSSAGHSLQDKQSVEETSGEGPEVEMESWQKRYDSLQKIVEKQQQKMDQLRSQVQSLEQEVAQEEGTSQALREEAQRRDSALQQLRTAVKELSVQNQDLIEKNLTLQEHLRQAQPGSPPSPDTAQLALELHQELASCLQDLQAVCSIVTQRAQGHDPNLSLLLGIHSAQHPETQLDLQKPDVIKRKLEEVQQLRRDIEDLRTTMSDRYAQDMGENCVTQ
Take B4: the “IMAP Y2H IMAP2 (number of IST)” value in assay [1] (HCV protein NS3 as bait) worked out at 2. For the same molecule, the “Interaction with viral protein” value in assay [2] was “NS3”. Moreover, the CoAP result in assay [3] (setting [4]) was “+”.

B5: PSMB9 (protein, UniProt P28065 21-219, looked up)
Proteasome subunit beta type-9: TTIMAVEFDGGVVMGSDSRVSAGEAVVNRVFDKLSPLHERIYCALSGSAADAQAVADMAAYQLELHGIELEEPPLVLAAANVVRNISYKYREDLSAHLMVAGWDQREGGQVYGTLGGMLTRQPFAIGGSGSTFIYGYVDAAYKPGMSPEECRRFTTDAIALAMSRDGSSGGVIYLVTITAAGVDHRVILGNELPKFYDE
As for B5, the “IMAP Y2H IMAP2 (number of IST)” value in assay [1] (HCV protein NS3 as bait) stood at 1; in assay [1] (HCV protein NS5A as bait), 38; in assay [1] (HCV protein NS5B as bait), 14. Moreover, the “Interaction with viral protein” value in assay [2] is “NS3 and NS5A”. The CoAP entry in assay [3] (setting [5]) and in assay [3] (setting [4]) was “+” in each case.

B6: VPS52 (protein, UniProt Q8N1B4 2-723, looked up)
Vacuolar protein …: AAAATMAAAARELVLRAGTSDMEEEEGPLAGGPGLQEPLQLGELDITSDEFILDEVDVHIQANLEDELVKEALKTGVDLRHYSKQVELELQQIEQKSIRDYIQESENIASLHNQITACDAVLERMEQMLGAFQSDLSSISSEIRTLQEQSGAMNIRLRNRQAVRGKLGELVDGLVVPSALVTAILEAPVTEPRFLEQLQELDAKAAAVREQEARGTAACADVRGVLDRLRVKAVTKIREFILQKIYSFRKPMTNYQIPQTALLKYRFFYQFLLGNERATAKEIRDEYVETLSKIYLSYYRSYLGRLMKVQYEEVAEKDDLMGVEDTAKKGFFSKPSLRSRNTIFTLGTRGSVISPTELEAPILVPHTAQRGEQRYPFEALFRSQHYALLDNSCREYLFICEFFVVSGPAAHDLFHAVMGRTLSMTLKHLDSYLADCYDAIAVFLCIHIVLRFRNIAAKRDVPALDRYWEQVLALLWPRFELILEMNVQSVRSTDPQRLGGLDTRPHYITRRYAEFSSALVSINQTIPNERTMQLLGQLQVEVENFVLRVAAEFSSRKEQLVFLINNYDMMLGVLMERAADDSKEVESFQQLLNARTQEFIEELLSPPFGGLVAFVKEAEALIERGQAERLRGEEARVTQLIRGFGSSWKSSVESLSQDVMRSFTNFRNGTSIIQGALTQLIQLYHRFHRVLSQPQLRALPARAELINIHHLMVELKKHKPNF
With B6, in assay [1] (HCV protein NS5A as bait), the “IMAP Y2H IMAP2 (number of IST)” value came out at 2. Further, in assay [3] (setting [5]), the CoAP entry was “+”.

The values are drawn from patent US20110091994A1, “Methods for Screening Compounds for Treating and/or Preventing an Hepatitis C Virus Infection” (priority 2008, published 2011).
